Biological target: T1, Pituitary Adenylate Cyclase-Activating Polypeptide 38 (PACAP38) (Homo sapiens, not fully specified; C-terminal lysine is amidated; N-terminally or C-terminally biotinylated in the HTRF binding assay and N-terminally biotinylated in the PC-12 cell binding assay)
T1 construct: synthetic peptide (American Peptide; AnaSpec for biotinylated forms); also called human PACAP38; PACAP 1-38
T1 peptide: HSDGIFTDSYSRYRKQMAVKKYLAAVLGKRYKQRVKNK
Assay: SPR ProteOn, Ab immobilized

B1: Ab22 (antibody, V domains shown)
VH: QEQLVESGGGLVQPEGSLTLTCTASGFDFSSNAMCWVRQAPGKGLEWIGSIYNADGKNYYAIWAKGRFTISRTSSTTVTLQMTSLTAADTATYFCARDFDLWGQGTLVTVSS
VL: AAVLTQTPSPVSAAVGGTVTINCQSSQSVYDNDWLAWFQQKPGQPPKLLIYLTSTLASGVPSRFSGSGSGTQFTLTISGVQCDDAATYYCLGGYDEDGDTHVFGGGTEVVVKR
Kd: 0.027 nM | koff: 1e-05 s⁻¹

— US20210324068A1 (H LUNDBECK A S, published 2021)
